Measured values taken from patent publication US20200017592A1 (Regeneron, published 2020).
Positions count from the first letter of the chain named.

T1: in-line fusion protein of human IL-36R extracellular domain and IL1RAcP extracellular domain expressed with … (human; mouse, UniProt Q9HB29 20-337; Q9NPH3 21-359, limits assumed)
T1 construct: not shown: mouse IgG2a Fc
T1 sequence (looked up): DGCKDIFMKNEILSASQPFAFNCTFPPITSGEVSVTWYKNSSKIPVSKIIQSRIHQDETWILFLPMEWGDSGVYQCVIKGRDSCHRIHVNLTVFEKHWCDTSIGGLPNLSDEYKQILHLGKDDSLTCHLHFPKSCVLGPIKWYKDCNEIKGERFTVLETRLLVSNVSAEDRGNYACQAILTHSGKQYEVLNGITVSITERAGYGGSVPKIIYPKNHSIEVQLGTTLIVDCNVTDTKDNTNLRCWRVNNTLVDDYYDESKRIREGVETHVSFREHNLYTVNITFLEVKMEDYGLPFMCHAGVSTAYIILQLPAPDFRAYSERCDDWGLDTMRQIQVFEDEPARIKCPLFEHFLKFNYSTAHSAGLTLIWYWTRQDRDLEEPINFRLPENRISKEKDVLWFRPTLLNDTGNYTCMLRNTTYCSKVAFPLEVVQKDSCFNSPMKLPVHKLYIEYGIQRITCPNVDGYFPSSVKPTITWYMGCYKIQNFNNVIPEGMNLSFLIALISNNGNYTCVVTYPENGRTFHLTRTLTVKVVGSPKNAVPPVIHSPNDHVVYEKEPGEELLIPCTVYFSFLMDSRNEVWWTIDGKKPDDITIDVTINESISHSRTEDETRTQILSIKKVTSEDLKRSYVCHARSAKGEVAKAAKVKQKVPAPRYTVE

T2: human IL-36R extracellular domain expressed with a C-terminal mouse IgG2a Fc tag (hIL-36R-mFc) (human; mouse, UniProt Q9HB29 20-337)
T2 construct: not shown: mouse IgG2a Fc, E98-K330
T2 sequence (looked up): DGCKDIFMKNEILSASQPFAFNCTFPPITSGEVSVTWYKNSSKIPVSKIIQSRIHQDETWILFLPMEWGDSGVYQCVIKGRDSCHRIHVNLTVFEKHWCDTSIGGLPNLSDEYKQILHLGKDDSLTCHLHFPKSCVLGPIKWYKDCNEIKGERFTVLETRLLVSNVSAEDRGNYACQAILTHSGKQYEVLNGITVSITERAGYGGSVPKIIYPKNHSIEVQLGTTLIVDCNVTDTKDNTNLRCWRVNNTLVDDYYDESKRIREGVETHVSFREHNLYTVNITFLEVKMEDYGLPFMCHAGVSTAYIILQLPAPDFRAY

B1: H4H14757P (antibody, human IgG4 S228P, kappa, V domains shown)
VH: EVQLVESGGGLVQPGRSLRLSCTASGFTFDDYAMHWVRQAPGKGLEWVSGIRWNGGSIGYVDSVKGRFTISRDNAKKSLHLQMNSLKTEDTALYYCAKDIGDILTGFYGEYGMDVWGQGTTVTVSS
VL: DIQMTQSPSSLSASEGDRVTITCRASQSISSYLNWYQQKAGKAPNLLIYAASSLQSGVPSRFSGSGSGTEYTLTISSLQPEDFATYYCQQSYIIPYTFGQGTKLEIKR
notes: Fully human anti-IL-36R antibody
B2: H4H14758P (antibody, human IgG4 S228P, kappa, V domains shown)
VH: EVQLVESGGGLVQPGRSLRLSCAASGFTFDDYAMHWVRQAPGKGLEWVSSVRWNGGIIGYADSVKGRFTISRDNAKNSLYLQMNSLRPEDTALYYCAKDIGDVLTGYYGEYGMDVWGQGTTVTVSS
VL: B1 VL with E15V, T22A, S30T, S31T, A40P, N45K, E70D, Y71F, I94S
notes: as for B1
B3: H4H14760P2 (antibody, human IgG4 S228P, kappa, V domains shown)
VH: QVQLVESGGGVVQPGKSLRLSCAASGFTFSNYGIHWVRQAPGKGLEWVAIILYDGSNQHYADSVKGRFTISRDNSKNTLYLQMNNLRAEDTAVYYCARDLDLWSGYYTNGDGMDVWGQGTTVTVSS
VL: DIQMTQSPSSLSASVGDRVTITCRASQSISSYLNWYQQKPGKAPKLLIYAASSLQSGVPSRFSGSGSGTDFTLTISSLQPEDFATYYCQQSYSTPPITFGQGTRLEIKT
notes: as for B1
B4: H4H14734P2 (antibody, human IgG4 S228P, kappa, V domains shown)
VH: EVQLVESGGGLVKPGGSLRLSCAASGFIFSNAWMNWVRQAPGKGLAWVGRIKTETDGGTTDYAAPVKGRFTISRDDSKNTLYLQMNSVKTEDTAVYYCTGGYSYGDDSSSWNEGYYYYGMDVWGQGTTVTVSS
VL: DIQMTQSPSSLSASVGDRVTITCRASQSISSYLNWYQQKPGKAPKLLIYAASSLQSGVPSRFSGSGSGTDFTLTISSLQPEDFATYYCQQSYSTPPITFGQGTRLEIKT
notes: Fully human anti-IL-36R antibody; also called H14H14734P2

target: T3, human IL-36R extracellular domain expressed with a C-terminal myc-myc-hexahistidine tag (hIL-36R-MMH) (human, UniProt Q9HB29 20-337); test: SPR Biacore T200, mAb captured on anti-hFc, 37C, PBS-T pH 7.4 running buffer
T3 construct: also called Human IL-36R-MMH; REGN2105
Protocol: (§1) Additional binding experiments were performed to determine the effect of pH on the rate of dissociation of IL-36R bound to purified anti-IL-36R antibodies, which was determined using a real-time surface plasmon resonance biosensor using a Biacore T200 instrument. The Biacore sensor surface was first derivatized by amine coupling with a monoclonal mouse anti-human Fc antibody (GE, # BR-1008-39) to capture anti-IL-36R antibodies. […] Different concentrations of hIL-36R-MMH and mfIL-36R-MMH prepared in PBS-T, pH7.4 buffer (ranging from 100 nM to 11.11 nM, 3-fold dilutions) were injected over the anti-IL-36R antibody captured surface for 4 minutes at a flow rate of 50 μL/minute and their dissociation in two running buffers, PBS-T, pH7.4 and PBS-T, pH 6.0, was monitored for 10 minutes. All of these binding kinetics experiments were performed at 25° C. and 37° C. Kinetic dissociation constant (kd) were determined by fitting the real-time sensorgrams to a 1:1 binding model using Scrubber 2.0c curve fitting software. Binding dissociative half-lives (t_{1/2}) were calculated from kd as: […]

| 100 nM hIL-36R-MMH Bound (RU) | koff | t1/2 | Binder |
| --- | --- | --- | --- |
| 113 RU | 0.00129 s⁻¹ | 9 min | B1 |
| 126 RU | 0.00226 s⁻¹ | 5 min | B2 |
| 94 RU | 0.00187 s⁻¹ | 6 min | B3 |
| 20 RU | 0.00121 s⁻¹ | 10 min | B4 |

target: T3, human IL-36R extracellular domain …; test: SPR Biacore T200, mAb captured on anti-hFc, 37C, PBS-T pH 6.0 running buffer
Protocol: as §1

| 100 nM hIL-36R-MMH Bound (RU) | koff | t1/2 | Binder |
| --- | --- | --- | --- |
| 109 RU | 0.0026 s⁻¹ | 4 min | B1 |
| 120 RU | 0.00339 s⁻¹ | 3 min | B2 |
| 85 RU | 0.0039 s⁻¹ | 3 min | B3 |
| 17 RU | 0.00169 s⁻¹ | 7 min | B4 |

target: T3, human IL-36R extracellular domain …; test: SPR Biacore T200, mAb captured on anti-hFc, 25C, PBS-T pH 7.4 running buffer
Protocol: as §1

| 100 nM Human IL-36R-MMH Bound (RU) | koff | t1/2 | Binder |
| --- | --- | --- | --- |
| 105 RU | 0.000597 s⁻¹ | 19 min | B1 |
| 108 RU | 0.00112 s⁻¹ | 10 min | B2 |
| 80 RU | 0.000545 s⁻¹ | 21 min | B3 |
| 20 RU | 0.000738 s⁻¹ | 16 min | B4 |

target: T3, human IL-36R extracellular domain …; test: SPR Biacore T200, mAb captured on anti-hFc, 25C, PBS-T pH 6.0 running buffer
Protocol: as §1

| 100 nM Human IL-36R-MMH Bound (RU) | koff | t1/2 | Binder |
| --- | --- | --- | --- |
| 98 RU | 0.000887 s⁻¹ | 13 min | B1 |
| 103 RU | 0.0018 s⁻¹ | 6 min | B2 |
| 69 RU | 0.000972 s⁻¹ | 12 min | B3 |
| 18 RU | 0.000787 s⁻¹ | 15 min | B4 |

target: T1, in-line fusion protein of human IL-36R …; test: SPR Biacore 4000, mAb captured on anti-hFc, 25C
Protocol: (§2) Equilibrium dissociation constants (KD values) for IL-36R binding to purified anti-IL-36R antibodies were determined using a real-time surface plasmon resonance biosensor using a Biacore 4000 instrument. The Biacore sensor surface was first derivatized by amine coupling with a monoclonal mouse anti-human Fc antibody (GE, # BR-1008-39) to capture anti-IL-36R monoclonal antibodies. All binding studies were performed in 0.01 M Hepes pH 7.4, 0.15 M NaCl, 3 mM EDTA, and 0.05% v/v Surfactant Tween-20 (HBS-ET running buffer) at 25° C. and 37° C. Different concentrations of IL-36R reagents, human IL-36R extracellular domain expressed with a C-terminal myc-myc-hexahistidine tag (hIL-36R-MMH), Macaca fascicularis IL-36R extracellular domain expressed with a C-terminal myc-myc-hexahistidine tag (mfIL-36R-MMH: mROR1 signal sequence (M1-A29). Macaca fascicularis IL36R_ecto domain (D20-A336).mycmycHis6), human IL-36R extracellular domain expressed with a C-terminal mouse IgG2a Fc tag (hIL-36R-mFc: mROR1 signal sequence (M1-A29)-human IL36R (D20-Y337)-mouse IgG2aFc (E98-K330)) or an in-line fusion protein of human IL-36R extracellular domain and IL1RAcP extracellular domain expressed with mouse IgG2a Fc tag (hIL-36R-Trap-mFc: mROR1 signal sequence (M1-A29)-human IL36R ecto domain (D20-Y337)-human IL1RacP ecto domain(S21-E359)-mouse IgG2aFc) in HBS-ET running buffer (ranging from 100 nM to 3.7 nM, 3-fold dilutions) were injected over the anti-IL-36R antibody captured surface for 4 minutes at a flow rate of 30 μL/minute and their dissociation in HBS-ET running buffer was monitored for 10 minutes. Kinetic association rate constant (kₐ) and dissociation rate constant (kd) were determined by fitting the real-time sensorgrams to a 1:1 binding model using Scrubber 2.0c curve fitting software. Binding dissociation equilibrium constants (KD) and dissociative half-lives (t_{1/2}) were calculated from the kinetic rate constants as: […]

| 100 nM hIL-36R-Trap-mFc Bound (RU) | Kd | koff | kon | t1/2 | Binder |
| --- | --- | --- | --- | --- | --- |
| 202 RU | 0.212 nM | 0.000103 s⁻¹ | 485000 M⁻¹ s⁻¹ | 113 min | B1 |
| 197 RU | 0.413 nM | 0.00018 s⁻¹ | 436000 M⁻¹ s⁻¹ | 64 min | B2 |
| 134 RU | 0.636 nM | 0.0001 s⁻¹ | 158000 M⁻¹ s⁻¹ | 115 min | B3 |
| 85 RU | 2.24 nM | 0.00011 s⁻¹ | 48900 M⁻¹ s⁻¹ | 105 min | B4 |

target: T2, human IL-36R extracellular domain …; test: SPR Biacore 4000, mAb captured on anti-hFc, 25C
Protocol: as §2

| 100 nM hIL-36R-mFc Bound (RU) | Kd | koff | kon | t1/2 | Binder |
| --- | --- | --- | --- | --- | --- |
| 167 RU | 0.173 nM | 9.97e-05 s⁻¹ | 575000 M⁻¹ s⁻¹ | 116 min | B1 |
| 161 RU | 0.309 nM | 0.000163 s⁻¹ | 526000 M⁻¹ s⁻¹ | 71 min | B2 |
| 121 RU | 0.526 nM | 0.000109 s⁻¹ | 207000 M⁻¹ s⁻¹ | 106 min | B3 |
| 77 RU | 1.63 nM | 0.000101 s⁻¹ | 62200 M⁻¹ s⁻¹ | 114 min | B4 |

target: T1, in-line fusion protein of human IL-36R …; test: SPR Biacore 4000, mAb captured on anti-hFc, 37C
Protocol: as §2

| 100 nM hIL-36R-Trap-mFc Bound (RU) | Kd | koff | kon | t1/2 | Binder |
| --- | --- | --- | --- | --- | --- |
| 281 RU | 0.374 nM | 0.000196 s⁻¹ | 523000 M⁻¹ s⁻¹ | 59 min | B1 |
| 251 RU | 0.777 nM | 0.000363 s⁻¹ | 468000 M⁻¹ s⁻¹ | 32 min | B2 |
| 195 RU | 1.7 nM | 0.000283 s⁻¹ | 166000 M⁻¹ s⁻¹ | 41 min | B3 |
| 99 RU | 2.96 nM | 0.000143 s⁻¹ | 48400 M⁻¹ s⁻¹ | 81 min | B4 |

target: T2, human IL-36R extracellular domain …; test: SPR Biacore 4000, mAb captured on anti-hFc, 37C
Protocol: as §2

| 100 nM hIL-36R-mFc Bound (RU) | Kd | koff | kon | t1/2 | Binder |
| --- | --- | --- | --- | --- | --- |
| 235 RU | 0.243 nM | 0.00015 s⁻¹ | 616000 M⁻¹ s⁻¹ | 77 min | B1 |
| 210 RU | 0.517 nM | 0.000286 s⁻¹ | 554000 M⁻¹ s⁻¹ | 40 min | B2 |
| 173 RU | 1.02 nM | 0.000222 s⁻¹ | 217000 M⁻¹ s⁻¹ | 52 min | B3 |
| 96 RU | 2.31 nM | 0.000122 s⁻¹ | 52700 M⁻¹ s⁻¹ | 95 min | B4 |
